Biological target: T1, GFP-MG53 (GFP fused to the amino-terminus of full-length mouse MG53) (mouse, UniProt Q1XH17 1-477)
T1 sequence: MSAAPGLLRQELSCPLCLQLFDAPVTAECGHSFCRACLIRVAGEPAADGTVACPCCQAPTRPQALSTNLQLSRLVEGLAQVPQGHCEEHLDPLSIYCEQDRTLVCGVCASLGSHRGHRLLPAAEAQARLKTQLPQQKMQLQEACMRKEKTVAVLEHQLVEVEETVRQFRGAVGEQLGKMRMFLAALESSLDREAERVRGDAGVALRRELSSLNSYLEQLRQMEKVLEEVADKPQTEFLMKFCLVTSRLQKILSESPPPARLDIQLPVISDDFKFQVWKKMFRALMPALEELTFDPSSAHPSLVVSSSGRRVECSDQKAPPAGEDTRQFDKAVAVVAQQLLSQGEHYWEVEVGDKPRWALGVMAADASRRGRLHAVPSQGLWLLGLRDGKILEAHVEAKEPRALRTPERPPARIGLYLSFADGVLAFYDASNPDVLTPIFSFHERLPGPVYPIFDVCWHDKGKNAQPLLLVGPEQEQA
Assay: cell-based or functional assay

B1: caveolin-3 (recombinant, expressed from pcDNA-Cav-3) (other)
chain: MMAEEHTDLEAQIVKDIHCKEIDLVNRDPKNINEDIVKVDFEDVIAEPVGTYSFDGVWKVSYTTFTVSKYWCYRLLSTLLGVPLALLWGFLFACISFCHIWAVVPCIKSYLIEIQCISHIYSLCIRTFCNPLFAALGQVCSSIKVVLRKEV
reduction in the appearance of filapodia-like structures (C2C12 myoblasts transfected with caveolin-3 and GFP-MG53 in a ratio of 10:1): 82%
